In PMC12820563, “FoxP3 forms a head-to-head dimer in vivo and stabilizes its multimerization on adjacent microsatellites”:

Key:
Assay in all cases: EMSA; monomer; Pull-down: 20 mM Tris-HCl pH 7.5, 100 mM NaCl, 1.5 mM MgCl2, room temperature, 0.4 uM MBP protein, 0.1 uM DNA (NFAT 0.2 uM); EMSA: 20 mM HEPES pH 7.5, 150 mM NaCl, 1.5 mM MgCl2, 2 mM DTT, 4 C, 0.2 uM DNA (RBR-FKH 0.8 uM, NFAT 0.4 uM)
FoxP1 RBR-FKH;NFAT1 DBD = biological target: T1, FoxP1 RBR-FKH;NFAT1 DBD (Mus musculus;Mus musculus?, UniProt P58462;Q60591 427-579;394-680, |); conditions: protein: recombinant;recombinant; tags: none (His6-NusA cleaved);none (His6-NusA cleaved); copies: 1;1; blunt
T1 sequence 1: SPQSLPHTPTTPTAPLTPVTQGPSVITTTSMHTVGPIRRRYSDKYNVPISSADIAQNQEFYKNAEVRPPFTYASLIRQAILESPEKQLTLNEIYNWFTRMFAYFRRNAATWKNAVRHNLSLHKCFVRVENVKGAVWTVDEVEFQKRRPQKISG
T1 sequence 2: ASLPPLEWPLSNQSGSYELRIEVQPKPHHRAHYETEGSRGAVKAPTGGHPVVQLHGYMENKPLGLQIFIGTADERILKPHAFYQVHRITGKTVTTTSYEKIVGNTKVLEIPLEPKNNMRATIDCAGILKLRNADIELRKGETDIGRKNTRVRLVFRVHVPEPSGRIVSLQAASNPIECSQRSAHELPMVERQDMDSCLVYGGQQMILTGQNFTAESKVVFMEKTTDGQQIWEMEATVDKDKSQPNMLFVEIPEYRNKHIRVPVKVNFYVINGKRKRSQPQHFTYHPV

[1] = biological target: T2, FoxP1RBR-FoxP3FKH;NFAT1 DBD (Mus musculus;Mus musculus?, UniProt P58462;Q60591 427-492+Q99JB6:337-423;394-680, internal_change|); conditions: protein: recombinant;recombinant; tags: none (His6-NusA cleaved);none (His6-NusA cleaved); copies: 1;1; blunt
T2 sequence 1: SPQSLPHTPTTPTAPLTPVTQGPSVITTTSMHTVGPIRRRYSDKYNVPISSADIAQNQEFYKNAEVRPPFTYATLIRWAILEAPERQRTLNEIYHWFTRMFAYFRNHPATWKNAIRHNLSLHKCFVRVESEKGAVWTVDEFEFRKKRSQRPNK
T2 sequence 2: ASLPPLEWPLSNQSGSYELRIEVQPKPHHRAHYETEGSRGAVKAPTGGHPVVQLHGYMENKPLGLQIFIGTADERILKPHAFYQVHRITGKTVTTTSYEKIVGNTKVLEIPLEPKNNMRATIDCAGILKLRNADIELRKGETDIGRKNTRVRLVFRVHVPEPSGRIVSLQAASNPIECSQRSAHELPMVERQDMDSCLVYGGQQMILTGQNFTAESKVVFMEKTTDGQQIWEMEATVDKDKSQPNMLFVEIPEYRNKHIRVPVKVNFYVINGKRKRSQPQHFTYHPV

[2] = biological target: T3, FoxP3RBR-FoxP1FKH;NFAT1 DBD (Mus musculus;Mus musculus?, UniProt Q99JB6;Q60591 284-336+P58462:493-579;394-680, internal_change|); conditions: protein: recombinant;recombinant; tags: none (His6-NusA cleaved);none (His6-NusA cleaved); chain copies: 2;1; blunt
T3 sequence 1: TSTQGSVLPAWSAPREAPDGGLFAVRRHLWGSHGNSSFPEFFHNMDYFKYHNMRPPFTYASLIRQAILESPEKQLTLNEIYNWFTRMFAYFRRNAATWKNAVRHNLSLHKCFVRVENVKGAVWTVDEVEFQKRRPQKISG
T3 sequence 2: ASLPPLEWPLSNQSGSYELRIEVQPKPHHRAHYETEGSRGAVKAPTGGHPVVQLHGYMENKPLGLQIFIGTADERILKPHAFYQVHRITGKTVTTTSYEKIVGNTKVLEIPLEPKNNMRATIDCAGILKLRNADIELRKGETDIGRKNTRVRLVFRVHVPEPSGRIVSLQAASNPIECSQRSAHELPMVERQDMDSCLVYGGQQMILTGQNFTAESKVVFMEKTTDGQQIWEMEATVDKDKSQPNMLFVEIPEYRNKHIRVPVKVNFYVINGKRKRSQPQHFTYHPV

FoxP3 RBR-FKH;NFAT1 DBD = biological target: T4, FoxP3 RBR-FKH;NFAT1 DBD (Mus musculus;Mus musculus?, UniProt Q99JB6;Q60591 284-423;394-680, |); conditions: protein: recombinant;recombinant; tags: none (His6-NusA cleaved);none (His6-NusA cleaved); copies: 1;1; blunt
T4 sequence 1: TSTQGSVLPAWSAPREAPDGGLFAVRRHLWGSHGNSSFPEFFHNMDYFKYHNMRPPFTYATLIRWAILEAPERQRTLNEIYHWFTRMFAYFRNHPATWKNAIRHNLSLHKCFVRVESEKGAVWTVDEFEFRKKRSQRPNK
T4 sequence 2: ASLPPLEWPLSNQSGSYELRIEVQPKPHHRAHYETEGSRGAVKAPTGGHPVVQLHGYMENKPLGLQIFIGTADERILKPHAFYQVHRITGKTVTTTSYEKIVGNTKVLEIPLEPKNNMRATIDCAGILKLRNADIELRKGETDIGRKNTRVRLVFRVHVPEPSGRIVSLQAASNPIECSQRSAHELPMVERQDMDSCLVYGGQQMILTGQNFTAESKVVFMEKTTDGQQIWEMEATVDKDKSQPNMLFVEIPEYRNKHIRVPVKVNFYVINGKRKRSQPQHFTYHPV

Measured: binding result

B1: DNA2 (NFAT sFKHM) (dsDNA)
DNA 1: TTAGGAAAATTTGTTTACTCCTCGCGGCAAA
DNA 2: TTTGCCGCGAGGAGTAAACAAATTTTCCTAA
binds: all assays above
